Measurements published in the RNAGym collection of RNA variant scans (doi:10.1093/molbev/msab373).

B1: Azoarcus group I ribozyme (parent)
chain: GUGCCUUGCGCCGGGAAACCACGCAAGGGAUGGUGUCAAAUUCGGCGAAACCUAAGCGCCCGCCCGGGCGUAUGGCAACGCCGAGCCAAGCUUCGGCGCCUGCGCCGAUGAAGGUGUAGAGACUAGACGGCACCCACCUAAGGCAAACGCUAUGGUGAAGGCAUAGUCCAGGGAGUGGCGAAAGUCACACAAACCGG

Variants of: B1
Assay: reverse-splicing fitness (ratio to wild type); higher = more active; in vitro selection; Mg2+ level not given
How it was run: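 An in vitro group I ribozyme library with randomized positions was T7-transcribed and gel-purified. In triplicate, 10 pmol RNA in EPPS pH 7.5 was reacted with 50 pmoles of a 30-nt RNA substrate for 1 h at 37 °C across several added MgCl2 levels (1–48 mM), then stopped with EDTA. Products were reverse transcribed from a substrate-complementary primer, PCR-amplified and sequenced (HiSeq 4000). Fitness is a variant's read proportion after selection over that before, normalised to wild type.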

Point of comparison: GUGCCUUGCGCCGGGAAACCACGCAAGGGAUGGUGUCAAAUUCGGCGAAACCUAAGCGCCCGCCCGGGCGUAUGGCAACGCUGAGCCAAGCUUCGGCGCCUGCGCCGAUGAAGGUGUAGAGACUAGACGGCACCCACCUAAGGCUAACGAUAUGGUGAAGGCAUAGUCGAGGGAGAGGCGAAAGUCACACAAACCGG, reverse-splicing fitness 0.0104. Against it:
- GUGCCUUGCGCCGGGAAACCACGCAAGGGAUGGUGUCAAAUUCGGCGAAACCUAAGCGCCCGCCCGGGCGUAUGGCAACGCUGAGCCAAGCUUCGGCGCCUGCGCCGAUGAAGGUGUAGAGACUAGACGGCACCCACCUAAGGCUAACGGUAUGGUGAAGGCAUAGUCGAGGGAGGGGCGAAAGUCACACAAACCGG — lower, 0.0049
- GUGCCUUGCGCCGGGAAACCACGCAAGGGAUGGUGUCAAAUUCGGCGAAACCUAAGCGCCCGCCCGGGCGUAUGGCAACGCUGAGCCAAGCUUCGGCGCCUGCGCCGAUGAAGGUGUAGAGACUAGACGGCACCCACCUAAGGCUAACGAUAUGGUGAAGGCAUAGUCGAGGGAGCGGCGAAAGUCACACAAACCGG — lower, 0.00918
- GUGCCUUGCGCCGGGAAACCACGCAAGGGAUGGUGUCAAAUUCGGCGAAACCUAAGCGCCCGCCCGGGCGUAUGGCAACGCUGAGCCAAGCUUCGGCGCCUGCGCCGAUGAAGGUGUAGAGACUAGACGGCACCCACCUAAGGCUAACGAUAUGGUGAAGGCAUAGUCGAGGGAGGGGCGAAAGUCACACAAACCGG — lower, 0.0051
- GUGCCUUGCGCCGGGAAACCACGCAAGGGAUGGUGUCAAAUUCGGCGAAACCUAAGCGCCCGCCCGGGCGUAUGGCAACGCUGAGCCAAGCUUCGGCGCCUGCGCCGAUGAAGGUGUAGAGACUAGACGGCACCCACCUAAGGCUAACGAUAUGGUGAAGGCAUAGUCUAGGGAGGGGCGAAAGUCACACAAACCGG — lower, 0.00535
- GUGCCUUGCGCCGGGAAACCACGCAAGGGAUGGUGUCAAAUUCGGCGAAACCUAAGCGCCCGCCCGGGCGUAUGGCAACGCUGAGCCAAGCUUCGGCGCCUGCGCCGAUGAAGGUGUAGAGACUAGACGGCACCCACCUAAGGCUAACGAUAUGGUGAAGGCAUAGUCUAGGGAGCGGCGAAAGUCACACAAACCGG — lower, 0.0101
- GUGCCUUGCGCCGGGAAACCACGCAAGGGAUGGUGUCAAAUUCGGCGAAACCUAAGCGCCCGCCCGGGCGUAUGGCAACGCUGAGCCAAGCUUCGGCGCCUGCGCCGAUGAAGGUGUAGAGACUAGACGGCACCCACCUAAGGCUAACGAUAUGGUGAAGGCAUAGUCUAGGGAGAGGCGAAAGUCACACAAACCGG — higher, 0.0118
- GUGCCUUGCGCCGGGAAACCACGCAAGGGAUGGUGUCAAAUUCGGCGAAACCUAAGCGCCCGCCCGGGCGUAUGGCAACGCUGAGCCAAGCUUCGGCGCCUGCGCCGAUGAAGGUGUAGAGACUAGACGGCACCCACCUAAGGCUAACGAUAUGGUGAAGGCAUAGUCCAGGGAGUGGCGAAAGUCACACAAACCGG — higher, 0.0658
- GUGCCUUGCGCCGGGAAACCACGCAAGGGAUGGUGUCAAAUUCGGCGAAACCUAAGCGCCCGCCCGGGCGUAUGGCAACGCUGAGCCAAGCUUCGGCGCCUGCGCCGAUGAAGGUGUAGAGACUAGACGGCACCCACCUAAGGCUAACGGUAUGGUGAAGGCAUAGUCCAGGGAGUGGCGAAAGUCACACAAACCGG — higher, 0.0715
- GUGCCUUGCGCCGGGAAACCACGCAAGGGAUGGUGUCAAAUUCGGCGAAACCUAAGCGCCCGCCCGGGCGUAUGGCAACGCUGAGCCAAGCUUCGGCGCCUGCGCCGAUGAAGGUGUAGAGACUAGACGGCACCCACCUAAGGCUAACGGUAUGGUGAAGGCAUAGUCGAGGGAGUGGCGAAAGUCACACAAACCGG — lower, 0.00717
- GUGCCUUGCGCCGGGAAACCACGCAAGGGAUGGUGUCAAAUUCGGCGAAACCUAAGCGCCCGCCCGGGCGUAUGGCAACGCUGAGCCAAGCUUCGGCGCCUGCGCCGAUGAAGGUGUAGAGACUAGACGGCACCCACCUAAGGCUAACGGUAUGGUGAAGGCAUAGUCAAGGGAGUGGCGAAAGUCACACAAACCGG — lower, 0.00864
- GUGCCUUGCGCCGGGAAACCACGCAAGGGAUGGUGUCAAAUUCGGCGAAACCUAAGCGCCCGCCCGGGCGUAUGGCAACGCUGAGCCAAGCUUCGGCGCCUGCGCCGAUGAAGGUGUAGAGACUAGACGGCACCCACCUAAGGCUAACGGUAUGGUGAAGGCAUAGUCUAGGGAGUGGCGAAAGUCACACAAACCGG — lower, 0.00842
- GUGCCUUGCGCCGGGAAACCACGCAAGGGAUGGUGUCAAAUUCGGCGAAACCUAAGCGCCCGCCCGGGCGUAUGGCAACGCUGAGCCAAGCUUCGGCGCCUGCGCCGAUGAAGGUGUAGAGACUAGACGGCACCCACCUAAGGCUAACGGUAUGGUGAAGGCAUAGUCAAGGGAGCGGCGAAAGUCACACAAACCGG — lower, 0.00964
- GUGCCUUGCGCCGGGAAACCACGCAAGGGAUGGUGUCAAAUUCGGCGAAACCUAAGCGCCCGCCCGGGCGUAUGGCAACGCUGAGCCAAGCUUCGGCGCCUGCGCCGAUGAAGGUGUAGAGACUAGACGGCACCCACCUAAGGCUAACGGUAUGGUGAAGGCAUAGUCAAGGGAGGGGCGAAAGUCACACAAACCGG — lower, 0.00523
- GUGCCUUGCGCCGGGAAACCACGCAAGGGAUGGUGUCAAAUUCGGCGAAACCUAAGCGCCCGCCCGGGCGUAUGGCAACGCUGAGCCAAGCUUCGGCGCCUGCGCCGAUGAAGGUGUAGAGACUAGACGGCACCCACCUAAGGCUAACGGUAUGGUGAAGGCAUAGUCAAGGGAGAGGCGAAAGUCACACAAACCGG — higher, 0.0105
